Conditions: Bacillus licheniformis, CD, reversible: Yes
[1] = pH 6, Thermal, Sodium phosphate Sodium fluoride 25 mM 100 mM
[2] = pH 6.5, Thermal, Sodium phosphate Sodium fluoride 25 mM 100 mM
[3] = pH 7, 22 °C, Urea, Fluorescence, Thiol reactivity, Sodium phosphate 100 mM, transition: 3
[4] = pH 7, Thermal, Sodium phosphate Sodium fluoride 25 mM 100 mM
[5] = pH 7.5, Thermal, Sodium phosphate Sodium fluoride 25 mM 100 mM
[6] = pH 8, Thermal, Sodium phosphate Sodium fluoride 25 mM 100 mM

MKLWFSTLKLKKAA [wild type]
heat capacity change of unfolding [1]: 3.9 kcal/mol/K
unfolding enthalpy (van 't Hoff) [1]: 141 kcal/mol
unfolding free energy [1]: 7.2 kcal/mol
Tm [2]: 67.9 °C
unfolding enthalpy (van 't Hoff) [2]: 147 kcal/mol
denaturant midpoint (higher = more stable) [3]: 3 M
unfolding free energy [3]: 5.2 kcal/mol
Tm [4]: 67 °C
unfolding enthalpy (van 't Hoff) [4]: 140 kcal/mol
Tm [5]: 66.5 °C
unfolding enthalpy (van 't Hoff) [5]: 163 kcal/mol
Tm [6]: 65.1 °C
unfolding enthalpy (van 't Hoff) [6]: 133 kcal/mol

— FireProtDB (doi:10.1529/biophysj.106.103804)
